One test has as its target T1, AβpE3-40 monomer (UniProt P05067 674-711, pyroglutamate at position 3 (N-terminal residue)).
T1 construct: range 3-40 (Aβ numbering); Synthetic peptide (Bachem/Anaspec), verified monomeric by SEC; also called monomeric AβpE3-40
The experiment in a line: SPR, antibody immobilised, monomer injected, 1:1 fit.

Test [1] addresses T2, truncated hTfR1 of SEQ ID NO:122 (human, UniProt P02786 122-760).
T2 construct: also called human TfR1; Human TfR1
Description: SPR, FLAG-captured TfR1, bispecific injected, 1:1 fit. As to the method:
(§1) Binding of the purified bispecific binding molecules produced in Example 47 to human and cynomolgus TfR1 was evaluated using SPR on a Biacore 8K instrument (Cytiva). […] The interaction was measured using the single cycle kinetics method with a contact time of 120 s at a flow rate of 30 μl/min followed by a dissociation time of 600 s. Regeneration of the surface between cycles was done by injecting 10 mM glycine-HCl, pH 1.7. The binding data was fitted to a 1:1 interaction model. The tested molecules were diluted in HBS-EP+ (Cytiva, #BR100669). Experiments were performed at 25° C.

For test [2], the target named is T3, truncated cTfR1 of SEQ ID NO:123 (cynomolgus monkey, UniProt Q5RDH6 122-760 (Pongo abelii entry)).
T3 construct: also called cynomolgus TfR1
T3 chain: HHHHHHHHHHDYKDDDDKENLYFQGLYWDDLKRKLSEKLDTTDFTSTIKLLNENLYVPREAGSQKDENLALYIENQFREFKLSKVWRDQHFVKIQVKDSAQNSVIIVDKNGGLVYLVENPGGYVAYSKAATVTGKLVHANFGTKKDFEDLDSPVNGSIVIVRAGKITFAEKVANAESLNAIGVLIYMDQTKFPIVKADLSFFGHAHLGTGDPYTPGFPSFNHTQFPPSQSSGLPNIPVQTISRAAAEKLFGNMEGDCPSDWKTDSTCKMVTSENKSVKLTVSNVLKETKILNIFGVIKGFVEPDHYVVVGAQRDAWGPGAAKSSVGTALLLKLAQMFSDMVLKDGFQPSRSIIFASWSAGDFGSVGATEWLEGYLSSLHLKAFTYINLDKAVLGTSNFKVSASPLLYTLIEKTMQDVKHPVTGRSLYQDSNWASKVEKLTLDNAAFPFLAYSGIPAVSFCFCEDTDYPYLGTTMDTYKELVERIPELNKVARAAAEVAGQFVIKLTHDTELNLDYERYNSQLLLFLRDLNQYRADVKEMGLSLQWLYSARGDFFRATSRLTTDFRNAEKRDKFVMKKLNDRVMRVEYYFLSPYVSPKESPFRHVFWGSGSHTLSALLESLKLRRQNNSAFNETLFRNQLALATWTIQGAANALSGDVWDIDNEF
Described as above. As to the method: as §1

Test [3] has as its target T4, ectodomain of human TfR1 (His10-hTfR1; SEQ ID NO:110) (human, UniProt P02786 89-760).
T4 construct: also called ectodomain of hTfR1
The experiment in a line: BLI: His-tagged Fab loaded from cell supernatant on anti-Fab sensors, hTfR1 ectodomain at 3.75 µg/ml in solution, 300 s association, 300 s dissociation. From the text:
The generated alanine variants were expressed as single mutant, His-tagged Fabs by transient transfection of Chinese hamster ovary cells (ExpiCHO; Thermo Fisher Scientific) according to the manufacturer's instructions. Clarified media, into which the Fabs had been secreted, was used to assess binding to hTfR1 by BLI (Octet RED384, ForteBio). The expressed Fabs were loaded from the cell supernatants onto anti-Fab biosensors during 240 s. Thereafter, association of ectodomain of hTfR1 (SEQ ID NO:110), diluted to 3.75 μg/ml in 1× Kinetics buffer (ForteBio), to the loaded sensors was measured for 300 s, followed by dissociation for 300 s.

Substitutions are numbered along the chain they refer to. Names and notes keep the numbering of the source.

T1 sequence (P05067 674-711): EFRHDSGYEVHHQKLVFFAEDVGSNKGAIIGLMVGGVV
T4 sequence (P02786 other isoform, or with tags, fused parts or gaps): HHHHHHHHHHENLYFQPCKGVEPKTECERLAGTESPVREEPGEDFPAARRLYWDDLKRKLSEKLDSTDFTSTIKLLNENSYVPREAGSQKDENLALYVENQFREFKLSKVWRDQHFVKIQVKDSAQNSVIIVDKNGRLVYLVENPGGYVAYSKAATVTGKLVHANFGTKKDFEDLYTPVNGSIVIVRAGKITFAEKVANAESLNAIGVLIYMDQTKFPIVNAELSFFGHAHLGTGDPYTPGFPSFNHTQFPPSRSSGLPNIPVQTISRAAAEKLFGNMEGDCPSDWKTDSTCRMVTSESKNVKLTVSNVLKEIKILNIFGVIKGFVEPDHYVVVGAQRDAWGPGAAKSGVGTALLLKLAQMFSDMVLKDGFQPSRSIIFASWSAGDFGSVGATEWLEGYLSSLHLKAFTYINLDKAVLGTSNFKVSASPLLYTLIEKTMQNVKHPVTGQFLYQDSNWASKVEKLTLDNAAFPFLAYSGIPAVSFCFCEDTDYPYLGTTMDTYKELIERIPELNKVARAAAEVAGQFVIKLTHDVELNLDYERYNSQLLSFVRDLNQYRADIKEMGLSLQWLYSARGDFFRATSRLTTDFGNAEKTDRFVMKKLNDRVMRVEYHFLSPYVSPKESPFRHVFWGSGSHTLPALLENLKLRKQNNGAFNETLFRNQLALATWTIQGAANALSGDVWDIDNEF

B1: BA006 (bispecific antibody, human IgG1, kappa)
light: EIVLTQSPLSLSVTLGQSASISCRSSQSLLDSNGKTYLHWFILRPGQSPRRLIYLVSILDSGVPDRFSGSGSGTDFTLKISRVEAEDVGVYYCVQGTHFPFTFGSGTKLEIKRTVAAPSVFIFPPSDEQLKSGTASVVCLLNNFYPREAKVQWKVDNALQSGNSQESVTEQDSKDSTYSLSSTLTLSKADYEKHKVYACEVTHQGLSSPVTKSFNRGEC
heavy 1: not shown
heavy 2: EVQLVQSGAEVVKPGASVRLSCKASGYSFTGFTMNWVRQALGQGLEWMGLINPYNGVTTYNQKFKGRLTMTRDMSTRTVYMDLSSLTYEDTAVYYCTREGNWEGVYWGQGTLVTVSSASTKGPSVFPLAPSSKSTSGGTAALGCLVKDYFPEPVTVSWNSGALTSGVHTFPAVLQSSGLYSLSSVVTVPSSSLGTQTYICNVNHKPSNTKVDKKVEPKSCDKTHTCPPCPAPELLGGPSVFLFPPKPKDTLMISRTPEVTCVVVDVSHEDPEVKFNWYVDGVEVHNAKTKPREEQYNSTYRVVSVLTVLHQDWLNGKEYKCAVSNKALPAPIEKTISKAKGQPREPQVYTLPPCRDELTKNQVSLWCLVKGFYPSDIAVEWESNGQPENNYKTTPPVLDSDGSFFLYSKLTVDKSRWQQGNVFSCSVMHEALHNHYTQKSLSLSPGGGGGSGGGGSGGGGSGGGGSDIQMTQSPSSVSASVGDRVTITCKSSQSLLYSTNQKNYLAWYQQKPGKAPKLLIYWASTRESGVPSRFSGSGSGTDFTLTISSLQPEDFATYYCQQYFIYPRTFGCGTKVEIKGGGGSGGGGSGGGGSGGGGSEVQLVQSGAEVKKPGSSVKVSCKASGYIFTDYNMDWVRQAPGQCLEWIGDINPDADTTSYNEKFKGRATLTVDKSTSTAYMELSSLRSEDTAVYYCARGGYSGSSYYHPMDYWGQGTLVTVKS
In the test with AβpE3-40 monomer, B1 returned a dissociation constant Kd of 2.3 nM, an off-rate constant (koff) of 0.00012 s⁻¹ and an on-rate constant (kon) of 52000 M⁻¹ s⁻¹. In test [1], this molecule gave a Kd of 189 nM, a koff of 0.0041 s⁻¹ and a kon of 22000 M⁻¹ s⁻¹. In test [2], this molecule came in with a Kd of 552 nM, a koff of 0.011 s⁻¹ and a kon of 20000 M⁻¹ s⁻¹.

B2: h26D3 variant HC1 Fab (Fab, V domains shown)
VH: EVQLVQSGAEVKKPGSSVKVSCKASGYIFTAYNMDWVRQAPGQGLEWIGDINPDYDTTSYNEKFKGRATLTVDKSTSTAYMELSSLRSEDTAVYYCARGGYSGSSYYHPMDYWGQGTLVTVSS
VL: DIQMTQSPSSVSASVGDRVTITCKSSQSLLYSTNQKNYLAWYQQKPGKAPKLLIYWASTRESGVPSRFSGSGSGTDFTLTISSLQPEDFATYYCQQYFIYPRTFGQGTKVEIK
notes: Single-mutant His-tagged Fab; also called D31A
With B2, the binding result in test [3] is reported as “binds”.

B3: h26D3 variant HC13 Fab (Fab, V domains shown)
VH: B2 VH with A31D, Y112A
VL: B2 VL
notes: Single-mutant His-tagged Fab; also called Y112A
Take B3: the binding result in test [3] is given as “binds”.

B4: h26D3 variant HC9 Fab (Fab, V domains shown)
VH: B2 VH with A31D, Y101A
VL: B2 VL
notes: Single-mutant His-tagged Fab; also called Y101A
For the molecule B4, the binding result in test [3] is on record as “binds”.

B5: h26D3 variant LC2 Fab (Fab, V domains shown)
VH: B2 VH with A31D
VL: B2 VL with Y38A
notes: Single-mutant His-tagged Fab; also called Y38A
Regarding B5, the binding result in test [3] is recorded as “binds”.

B6: h26D3 variant HC12 Fab (Fab, V domains shown)
VH: B2 VH with A31D, D111A
VL: B2 VL
notes: Single-mutant His-tagged Fab; also called D111A
Take B6: in test [3], the binding result was “binds”.

B7: h26D3 variant LC3 Fab (Fab, V domains shown)
VH: B2 VH with A31D
VL: B2 VL with Y55A
notes: Single-mutant His-tagged Fab; also called Y55A
For B7, the binding result in test [3] was “binds”.

B8: h26D3 variant LC4 Fab (Fab, V domains shown)
VH: B2 VH with A31D
VL: B2 VL with W56A
notes: Single-mutant His-tagged Fab; also called W56A
As to B8, in test [3], the binding result is reported as “binds”.

B9: h26D3 variant HC7 Fab (Fab, V domains shown)
VH: B2 VH with A31D, D56A
VL: B2 VL
notes: Single-mutant His-tagged Fab; also called D56A
Turning to B9, the binding result in test [3] was “binds”.

The values are drawn from patent US20250388664A1 (BIOARCTIC, published 2025).
